Values joined by “and” are separate entries in the source; they are usually repeats but may differ in a detail not shown here. Identical values can stand only once.
Biological target: T1, biotinylated complete Aβ1-42 peptide (Bachem) (UniProt P05067 672-713, biotinylated (position not given))
T1 construct: domain: amyloid beta 1-42; also called Amyloid beta 1-42; whole Aβ1-42 protein
Assay: SPR (Biacore X), biotinylated monomeric Aβ1-42 on SA chip, 1:1 fit
Description: The interactions between AC immune's lead antibody mACI-01-Ab7 C2 (mC2) with amyloid peptide Aβ₁₋₄₂ was studies using surface plasmon resonance. The binding of the mouse antibody mACI-01-Ab7 C2 to either monomers or fibers of Aβ₁₋₄₂ were determined.
All SPR experiments were carried out on a Biacore X instrument (Biacore AB). Reagents for immobilization (EDC, NHS and ethanolamine), sensor chips CM5 and SA as well as running and sample buffer HBS-EP were purchased from Biacore AB. Sodium acetate (10 mM, pH 5.0) was used as coupling buffer to increase coupling yield. Fibrillar Aβ₁₋₄₂ (BAchem) was prepared by adding PBS buffer to Aβ₁₋₄₂ to a final concentration of 3 mg/ml and leaving the vials at 37° C. for 7 days. Fibrillar Aβ₁₋₄₂ was coupled to a CM5 sensor chip containing a surface-bound carboxymethyl dextran matrix. Biotinylated monomeric Aβ₁₋₄₂ (Bachem) was coupled to a Sensor chip SA consisting of carboxymethyl dextran matrix with covalently attached Streptavidin. Typically four or five concentrations of mAb were assayed by serial dilutions using running buffer. Injections were performed starting from the lowest concentration and were passed over both fc 1 and 2 at a flow rate of 30 μL'min for 3 min. Flow cell 2 was underivatised and responses were subtracted from fc 1 to correct for instrument noise and bulk refractive changes. After injection was finished, the surfaces were washed immediately with running buffer for 5 min. To remove remaining bound antibody from the Aβ₁₋₄₂ fibrils, surface regeneration was performed by injecting pulses of 10 mM NaOH. Kinetic analysis was performed using algorithms for numerical integration and global analysis using BIAevaluation 3.0. The curves obtained for injections of analyte at different concentrations were overlaid and the baselines adjusted to zero. For curve fitting, all data were fit simultaneously to a 1:1 homogeneous complex.

T1 sequence (P05067 672-713 limits assumed): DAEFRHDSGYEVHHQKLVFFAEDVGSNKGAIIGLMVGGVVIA

Kd: 150 nM and 350 nM | koff: 0.0027 s⁻¹ and 0.0053 s⁻¹ | kon: 18000 M⁻¹ s⁻¹ and 15000 M⁻¹ s⁻¹
B1: mouse monoclonal antibody ACI-01-Ab7C2 (antibody, V domains shown)
VH: EVQLVESGGGLVQPGGSLKLSCAASGFTFSSYGMSWVRQTPDKRLELVASINSNGGSTYYPDSVKGRFTISRDNAKNTLYLQMSSLKSEDTAMYYCASGDYWGQGSTLTVSS
VL: DVVMTQTPLSLPVSLGDQASISCRSSQSLVYSNGDTYLHWYLQKPGQSPKLLIYKVSNRFSGVPDRFSGSGSGTDFTLKISRVEAEDLGVYFCSQSTHVPWTFGGGTKLEIK
notes: also called mC2; mACI-01-Ab7 C2
